Measurements taken from patent US20180273622A1 (published 2018).
Numbering of substitutions follows the chain as printed.

B1: Fc H8L1 (TSC316) (Fc fusion)
chain: EPKSSDKTHTCPPCPAPEAAGAPSVFLFPPKPKDTLMISRTPEVTCVVVDVSHEDPEVKFNWYVDGVEVHNAKTKPREEQYNSTYRVVSVLTVLHQDWLNGKAYACAVSNKALPAPIEKTISKAKGQPREPQVYTLPPSRDELTKNQVSLTCLVKGFYPSDIAVEWESNGQPENNYKTTPPVLDSDGSFFLYSKLTVDKSRWQQGNVFSCSVMHEALHNHYTQKSLSLSPGQRHNNSSLNTGTQMAGHSPNSQVQLVQSGAEVKKPGASVKVSCKASGYTFTRSTMHWVRQAPGQGLEWMGYINPSSAYTNYNQKFKDRVTMTRDTSTSTVYMELSSLRSEDTAVYYCARPQVHYDYNGFPYWGQGTLVTVSSGGGGSGGGGSGGGGSGGGGSDIQMTQSPSSLSASVGDRVTMTCSASSSVSYMNWYQQKPGKAPKRWIYDSSKLASGVPARFSGSGSGTDYTLTISSLQPEDFATYYCQQWSRNPPTFGGGTKLQITSSS
B2: Fc H7L1 (TSC313) (Fc fusion)
chain: B1 chain with T328I, V331A, S337R, E341D
B3: Fc DRA222 (TSC311 or TSC312) (Fc fusion)
chain: EPKSSDKTHTCPPCPAPEAAGAPSVFLFPPKPKDTLMISRTPEVTCVVVDVSHEDPEVKFNWYVDGVEVHNAKTKPREEQYNSTYRVVSVLTVLHQDWLNGKAYACAVSNKALPAPIEKTISKAKGQPREPQVYTLPPSRDELTKNQVSLTCLVKGFYPSDIAVEWESNGQPENNYKTTPPVLDSDGSFFLYSKLTVDKSRWQQGNVFSCSVMHEALHNHYTQKSLSLSPGQRHNNSSLNTGTQMAGHSPNSQVQLVESGGGVVQPGRSLRLSCKASGYTFTRSTMHWVRQAPGQGLEWIGYINPSSAYTNYNQKFKDRFTISADKSKSTAFLQMDSLRPEDTGVYFCARPQVHYDYNGFPYWGQGTPVTVSSGGGGSGGGGSGGGGSAQDIQMTQSPSSLSASVGDRVTMTCSASSSVSYMNWYQQKPGKAPKRWIYDSSKLASGVPARFSGSGSGTDYTLTISSLQPEDFATYYCQQWSRNPPTFGGGTKLQITSSS

Biological target: human CD3 (human, UniProt P07766 23-207; P09693 23-182; P04234 22-171; P20963 22-164)
Sequence (P07766 23-207, chain 1 of 4): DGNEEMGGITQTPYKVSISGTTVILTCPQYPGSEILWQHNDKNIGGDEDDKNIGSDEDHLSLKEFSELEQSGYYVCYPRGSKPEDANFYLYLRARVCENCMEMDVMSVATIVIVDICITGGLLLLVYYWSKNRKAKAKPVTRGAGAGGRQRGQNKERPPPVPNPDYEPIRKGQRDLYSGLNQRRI
Sequence (P09693 23-182, chain 2 of 4): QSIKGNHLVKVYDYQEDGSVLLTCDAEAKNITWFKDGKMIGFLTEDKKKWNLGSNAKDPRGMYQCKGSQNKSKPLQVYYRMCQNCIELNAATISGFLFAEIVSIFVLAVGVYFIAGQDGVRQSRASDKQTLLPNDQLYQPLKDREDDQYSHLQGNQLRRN
Sequence (P04234 22-171, chain 3 of 4): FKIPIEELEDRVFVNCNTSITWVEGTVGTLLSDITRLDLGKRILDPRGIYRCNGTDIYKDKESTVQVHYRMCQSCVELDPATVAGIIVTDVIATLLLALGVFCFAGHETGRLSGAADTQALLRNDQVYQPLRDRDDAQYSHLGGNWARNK
Sequence (P20963 22-164, chain 4 of 4): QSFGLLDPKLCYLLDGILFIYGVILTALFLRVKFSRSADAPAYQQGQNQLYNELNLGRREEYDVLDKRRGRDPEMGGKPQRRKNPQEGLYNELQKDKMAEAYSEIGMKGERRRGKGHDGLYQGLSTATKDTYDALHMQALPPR
Assay: flow cytometry, Jurkat T cells

EC50	Binder
1.3 nM	B1
0.87 nM	B2
1.7 nM	B3
